Values of other authors as cited in paper PMC8894873.

Target: Glu35 (UniProt position 53, CAAKFESNFNT)
Assay: not stated (a cited reference title indicates two-dimensional 1H NMR)

In the case of “Lysozyme (lysozyme C, presumably hen egg-white) (Gallus gallus (inferred; the article says only 'lysozyme'))”, the pKa is given as 6.3.
